Values belong to the molecule of their own block, whether it stands above or below them.
Legend:
[1] = molecular target: exonuclease deficient AtPolIB (AtPolIB exo-) (Arabidopsis thaliana); experiment: SEC-MALS
[2] = molecular target: AtmtSSB2 (Arabidopsis thaliana); experiment: SEC
[3] = molecular target: AtmtSSB1 (Arabidopsis thaliana); experiment: SEC
[4] = molecular target: exonuclease deficient AtPolIB (AtPolIB exo-) (Arabidopsis thaliana); experiment: MST
AtmtSSB1 [5] = molecular target: T1, AtmtSSB1 (Arabidopsis thaliana, UniProt Q84J78 33-201); experiment: fluorescence anisotropy
T1 sequence: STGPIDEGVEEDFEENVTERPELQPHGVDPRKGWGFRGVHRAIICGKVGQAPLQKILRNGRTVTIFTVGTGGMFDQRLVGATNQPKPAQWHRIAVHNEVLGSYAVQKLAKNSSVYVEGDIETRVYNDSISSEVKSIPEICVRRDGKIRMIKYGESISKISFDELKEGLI

AtmtSSB1 [6] = molecular target: T1, AtmtSSB1; experiment: fluorescence anisotropy; remark: listed apart in the source
SEC = molecular target: the molecule itself; experiment: SEC

stoichiometry N [1]: 2
Molecule: exonuclease deficient AtPolIB (AtPolIB exo-) (enzyme)

stoichiometry N [2]: 4
Molecule: AtmtSSB2 (natural protein)

stoichiometry N [3]: 4 | Kd [4]: 1480 nM
Molecule: AtmtSSB1 (natural protein)

Further lines, the molecule ahead of its results:

Molecule: TTTTTTTTTTTTTTTTTTTTTTTTTTTTTTTTTTTTTTTTTTTTT (ssDNA) [ssDNA(45), Poly-T 45]
Kd (AtmtSSB1 [5]): 62.8 ± 3.6 nM

B1: pssDNA-10 (Cy3) (mixed)
DNA 1: AACACTGTGAGCTTAGAGCCCCGGGG
DNA 2: CTAAGCTCACAGTGTT
binding result (AtmtSSB1 [6]): no binding

B2: AtWhirly2 (natural protein, Arabidopsis thaliana, UniProt Q8VYF7 30-238, looked up)
chain: ASWSNSSTPGRGFPGKDAAKPSGRLFAPYSIFKGKAALSVEPVLPSFTEIDSGNLRIDRRGSLMMTFMPAIGERKYDWEKKQKFALSPTEVGSLISMGSKDSSEFFHDPSMKSSNAGQVRKSLSVKPHADGSGYFISLSVNNSILKTNDYFVVPVTKAEFAVMKTAFSFALPHIMGWNRLTGHVNTEALPSRNVSHLKTEPQLELEWDK
stoichiometry N (SEC): 4 | Kd [4]: > 250000 nM

B3: AtOSB2 (natural protein, Arabidopsis thaliana, UniProt Q8GXH3 21-371, looked up)
chain: ASEITTGKRITSPQIRLYTAAAVGGKTGNGERKQRAKAPAKTPEAVTPVKPLEIASVTATTENELPRPNEIAYESEVANWVNLIGFVDQPVQFEASSDGKFWAGTVISQRSASDSSGFWIPIIFEGDLAKTAARYVSKDDQIHVSGKLFIDSPPPNMTYAQANVQVLVQNLNFIQPMSPSPSPFMVMSSSEKEESGIKKQPARAKQDIVIDEASDSWNHLIENPKEWWDHRENKVNGLVKPRHPDFKSKDSSFSLWLNKAPNWVLPKLEGLEFDVLVPKARVVKQLKGEESWKDLVQNPDKWWDNRIDKRNAKAPDFKHKETGEALWLNESPTWVLPKLPPVKKKQESIVF
stoichiometry N (SEC): 4

B4: AtOSB3 (natural protein, Arabidopsis thaliana, UniProt Q8GWJ4 62-440, looked up)
chain: VATEKESTPPKKIEYKPEISNWINLIGFVEQPVQFGPCSDGKFWAGTVISQRSGSKSSNFWIPIIFEGDLAKIAVQHVKKEDRIHVSGKLFIDSPPPNVTYSQSNVQVMVQNLNFVQAATSTTKTISPPEKEVTSIKKKPARSKKVKVIDEETSNSWKHLIENPKEWLDHRGNKANGLVKPGHPDFKMKVGGLSLWLSTAPDWALLKLEELKFDVLVPKGNIKLNQLKGEESWKDLVQNPDKWLDNRSDKTNVKYPDFKHKETGEALWMTNSPIWVLSKLPPLKKNQERPFMSNKVSQLELDVEVPKGNLKQLKREEIWKNLVENPSKWWDNRLDKRNPKGPDFKHKETGEALWIGDSPTWALSKLPPLKKNQERPVMA
stoichiometry N (SEC): 4
